Assay [1] has as its target T1, HEK-293T cells expressing GFP-tagged E17K PH Domain (Homo sapiens, UniProt P31749, E17K).
T1 construct: transfected to express GFP-tagged E17K or GFP-tagged WT PH Domain proteins; expressed in transfected cells; host or cells: HEK-293T
As to the kind of experiment: Cell imaging, cells expressing E17K protein. Format: cell-based. The settings on record: confocal imaging, 50 nM, compared with WT cells, in words. The text has this:
The yleaf ligand was then labeled with both a Tat cell-penetrating peptide^22 and a Cy5 dye (FIG. 2a). The combination of the GFP label on the protein and the Cy5 label on the dye permitted the use of multi-color fluorescence microscopy for interrogating any spatial registry between the two fluorescent labels, as well as tracking the efficiency of the protein expression in the cells. Live HEK-293T cells expressing these GFP-tagged proteins were exposed to varying concentrations of the modified yleaf anchor ligand 6 for one hour. The cells were then incubated in fresh media for one hour before being thoroughly washed in PBS to remove weakly and nonspecifically bound PCC and fixed for fluorescence microscopy measurements.
However, the level of the PCC agent retained by the cells was substantially different (FIG. 4). […] Pearson's correlation coefficient was used to quantify the co-localization of the two different dyes^23 by calculating over four representative images for each of the WT or E17K mutant cells and averaging the results. […] The Cy5 fluorescence intensity on a per cell basis has also been calculated for the cells expressing the WT and E17K proteins, and this difference is again statistically significant (p=0.00018). […]

A further assay has as its target full length Akt1E17K (Homo sapiens, UniProt P31749, E17K). As to the kind of experiment: Fluorescence polarization binding to full-length E17K Akt1. The settings on record: triligand 9, triplicate, in words. The procedure: FIG. 2: Anchor ligand structure and characterization. (FIG. 2A) The peptide anchor ligand, yleaf (SEQ ID NO: 43), which was discovered using the epitope-targeting technique. The different sets of R groups indicate the modifications that were made to perform the various experiments described. (FIG. 2B) Point ELISA for specificity obtained by immobilizing biotinylated yleaf (SEQ ID NO: 43) anchor ligand 2 onto a Neutravidin plate, then incubating with a 6 His-tagged epitope (“6 His” disclosed as SEQ ID NO: 4) 3. […] (FIG. 2C) Binding curves of yleaf (SEQ ID NO: 43) anchor ligand 4 to the full-length WT or E17K mutant Akt1 proteins obtained in solution by fluorescence polarization. A saturation point for the WT ligand was not reached due to the prohibitively high protein concentration required. (FIG. 2D) Full binding curves of yleaf (SEQ ID NO: 43) anchor ligand 4 to the WT or E17K mutant epitopes. […] All assays were performed in triplicate and averaged. Error bars indicate standard deviation.
FIG. 5: The PCC agent triligand development strategy, structure, and inhibition data. (FIG. 5A) The yleaf (SEQ ID NO: 43) anchor ligand with a C-terminal alkyne 2 was screened against an azide-terminated library in the presence of the full-length PH Domain to identify a biligand. The biligand 7 was then appended with an N-terminal azide and screened against an alkyne library to identify a triligand. […]
For orientation: Polarisation of emitted light reports the rotation of a fluorescent probe.

Primed or numbered codes have the meaning given here. Where no end group is shown, it is not given here. [ ]: non-standard residue; d: D form. PEG5′ = PEG5 linker

Sequence of full length Akt1E17K (P31749 whole entry E17K): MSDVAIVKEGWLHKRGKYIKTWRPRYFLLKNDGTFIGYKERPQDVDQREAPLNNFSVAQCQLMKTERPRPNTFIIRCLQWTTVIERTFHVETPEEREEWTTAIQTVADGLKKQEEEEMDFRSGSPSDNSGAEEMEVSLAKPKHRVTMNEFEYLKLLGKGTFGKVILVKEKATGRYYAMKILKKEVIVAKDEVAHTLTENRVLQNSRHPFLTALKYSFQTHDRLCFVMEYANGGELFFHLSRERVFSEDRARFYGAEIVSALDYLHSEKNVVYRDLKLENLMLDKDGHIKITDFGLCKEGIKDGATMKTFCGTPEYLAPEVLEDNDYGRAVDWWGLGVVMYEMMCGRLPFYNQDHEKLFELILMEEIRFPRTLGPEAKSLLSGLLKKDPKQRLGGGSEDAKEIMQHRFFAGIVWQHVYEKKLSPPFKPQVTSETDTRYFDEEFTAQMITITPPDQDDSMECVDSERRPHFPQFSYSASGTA
T1 sequence (P31749 5-108 E17K limits assumed): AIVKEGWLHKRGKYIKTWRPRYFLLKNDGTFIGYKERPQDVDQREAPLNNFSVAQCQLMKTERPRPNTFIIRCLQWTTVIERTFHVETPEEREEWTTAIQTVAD

Turning to “PEG5-TAT-Cy5: control construct with no anchor ligand peptide, used in cell imaging ([PEG5′]YGRKKRRQRR; not fully specified (C-terminus); numbers in words are those of the source; also: Cy5 dye attached, site not given here)”, the “retention of Cy5-labeled ligand in cells expressing E17K PH Domain (Cy5 signal)” value in assay [1] was “looks the same as the WT PH Domain images”.

Consider “triligand 9: form of the ivdae-yleaf-yksy triligand used in fluorescence polarization assays (peptide 1 [dI][dV][dD][dA][dE]; peptide 2 [dY][dL][dE][dA][dF]; peptide 3 [dY][dK][dS][dY]; also: three chains joined by triazole click linkages (Lys(N3) and Pra handles), places not settled)”, for which, in the assay with full length Akt1E17K, the “selectivity for E17K over WT full-length protein by fluorescence polarization” value is “E17K mutant selectivity is retained”.

The values are drawn from patent US10975123B2, “Mutant Akt-specific capture agents, compositions, and methods of using and making” (California Institute of Technology, priority 2014, dated 2021).
